The values that follow come from patent US20220332804A1 (CSL INNOVATION, published 2022).

Common to all, as to assay: SPR, KD relative to WT C2;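 further: biacore SPR at 37 °C, anti-C2 mAbs captured via immobilised goat anti-human IgG, C2 alanine or serine surface mutants as analytes, 1:1 model fitted, double-referenced sensograms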
Background: In SPR one partner is held on a chip, and binding of the other changes the refractive index at the surface.

The target of assay [1] is T1, human C2 V465A (human, UniProt P06681 21-752).
T1 sequence: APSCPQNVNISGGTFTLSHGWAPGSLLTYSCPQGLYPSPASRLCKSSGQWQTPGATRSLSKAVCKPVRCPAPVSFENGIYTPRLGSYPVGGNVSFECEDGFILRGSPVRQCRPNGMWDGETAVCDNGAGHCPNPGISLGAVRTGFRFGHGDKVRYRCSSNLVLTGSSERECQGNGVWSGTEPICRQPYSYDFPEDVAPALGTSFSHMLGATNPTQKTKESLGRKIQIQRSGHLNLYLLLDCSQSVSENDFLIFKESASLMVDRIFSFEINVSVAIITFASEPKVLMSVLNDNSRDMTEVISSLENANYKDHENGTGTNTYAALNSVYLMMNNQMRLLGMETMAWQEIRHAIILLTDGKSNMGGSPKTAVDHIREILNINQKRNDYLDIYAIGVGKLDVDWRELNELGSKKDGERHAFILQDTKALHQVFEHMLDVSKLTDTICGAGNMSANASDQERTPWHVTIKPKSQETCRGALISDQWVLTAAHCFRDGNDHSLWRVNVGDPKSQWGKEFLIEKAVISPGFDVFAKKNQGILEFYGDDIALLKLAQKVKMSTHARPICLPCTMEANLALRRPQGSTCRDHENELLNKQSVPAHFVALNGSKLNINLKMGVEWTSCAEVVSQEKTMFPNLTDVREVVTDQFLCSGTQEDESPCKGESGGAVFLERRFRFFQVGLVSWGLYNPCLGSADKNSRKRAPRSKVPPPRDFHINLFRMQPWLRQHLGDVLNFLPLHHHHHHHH

The target in assay [2] is T2, human C2 S720A (human, UniProt P06681 21-752).
T2 sequence: T1 sequence with A445V, S700A

The target in assay [3] is T3, human C2 A709S (human, UniProt P06681 21-752).
T3 sequence: T1 sequence with A445V, A689S

The target in assay [4] is T4, human C2 Y328A (human, UniProt P06681 21-752).
T4 sequence: T1 sequence with Y308A, A445V

Numbering of substitutions follows the chain as printed.

B1: RF16-226 (antibody, human IgG4 S228P, lambda)
heavy: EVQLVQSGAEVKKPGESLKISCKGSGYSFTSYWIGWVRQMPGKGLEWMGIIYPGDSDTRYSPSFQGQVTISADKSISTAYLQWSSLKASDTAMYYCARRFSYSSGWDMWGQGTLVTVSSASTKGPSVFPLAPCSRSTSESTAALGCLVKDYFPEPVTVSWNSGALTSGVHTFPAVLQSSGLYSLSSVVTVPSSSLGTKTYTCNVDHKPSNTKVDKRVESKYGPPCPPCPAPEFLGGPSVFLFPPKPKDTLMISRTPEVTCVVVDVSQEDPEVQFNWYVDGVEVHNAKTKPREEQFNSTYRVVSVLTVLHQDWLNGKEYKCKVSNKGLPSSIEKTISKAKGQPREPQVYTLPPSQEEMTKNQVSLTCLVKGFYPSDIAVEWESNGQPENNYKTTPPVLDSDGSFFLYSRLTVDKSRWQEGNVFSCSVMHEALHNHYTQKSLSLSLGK
light: SYELTQPPSVSVSPGQTARITCSGDALTSKYVAWYQQKSGLAPLLVIYEDTRRPSGIPAKFSGSSSGSVATLTISGAHGDDEADYYCYSTDASGHQRVFGGGTKLTVLSQPKAAPSVTLFPPSSEELQANKATLVCLISDFYPGAVTVAWKADGSPVKAGVETTKPSKQSNNKYAASSYLSLTPEQWKSHRSYSCQVTHEGSTVEKTVAPTECS
notes: pH-dependent anti-C2 antibody from a phage display library; also called WT
For B1, the Fold diff in assay [1] stood at 2 fold; in assay [2] it was 1 fold; in assay [3], 13 fold; in assay [4] it was 8 fold.
